Residue numbers refer to the chain shown, from its start. Like-named read-outs stand apart in the source and are kept apart here.

Assay [1] addresses T1, Human D1A/G8 (biotinylated (AviTag)).
T1 construct: may be the same protein as m34; also called human Delta1A / Gamma8 TCR-Fc fusion protein
Briefly: bead binding assay: biotinylated TCR-Fc on streptavidin beads, IgG titrated, flow cytometry. For orientation: In flow cytometry, cells or beads pass a laser one at a time.

In assay [2] the target is T2, Cyno D2 (biotinylated (AviTag)).
T2 construct: also called cynomolgus Gamma/Delta2; Cyno D2/G
T2 delta chain: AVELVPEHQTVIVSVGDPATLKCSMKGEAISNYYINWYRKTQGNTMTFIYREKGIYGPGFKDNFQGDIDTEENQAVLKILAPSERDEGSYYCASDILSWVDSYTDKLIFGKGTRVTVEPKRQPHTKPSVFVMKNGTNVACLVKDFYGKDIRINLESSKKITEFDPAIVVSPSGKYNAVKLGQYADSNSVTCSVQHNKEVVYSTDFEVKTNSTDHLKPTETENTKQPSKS
T2 gamma chain: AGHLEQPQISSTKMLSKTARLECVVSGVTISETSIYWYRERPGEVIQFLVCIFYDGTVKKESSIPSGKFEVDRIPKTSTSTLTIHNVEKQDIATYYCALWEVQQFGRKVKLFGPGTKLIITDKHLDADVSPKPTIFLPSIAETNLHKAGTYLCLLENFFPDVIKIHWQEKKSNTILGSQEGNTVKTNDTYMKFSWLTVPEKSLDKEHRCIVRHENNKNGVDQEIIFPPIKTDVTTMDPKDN
Described as above.

The target in assay [3] is T3, Human D1A/G3 (biotinylated (AviTag)).
T3 construct: also called human Delta1A / Gamma3 TCR-Fc fusion protein
The description is as above.

In assay [4] the target is T4, cynomolgus Gamma/Delta1A TCR-Fc fusion protein (cynomolgus monkey, biotinylated in vitro with recombinant BirA (AviTag)).
T4 construct: First chain = delta, second = gamma; also called Cyno D1; cyno D1; not shown: Fc portion of mouse IgG, then AviTag and His6 tag at the C-terminus; Fc portion of mouse IgG
Nature of the assay: bead binding assay (TCR-Fc on streptavidin beads, IgG titrated, flow cytometry); apparent KD, s.d. of triplicates.

Assay [5] deals with T4, cynomolgus Gamma/Delta1A TCR-Fc fusion …. Briefly: bead binding assay: biotinylated TCR-Fc on streptavidin beads, IgG titrated, flow cytometry.
The target in assay [6] is T2, Cyno D2. The description is as above.
Assay [7] deals with T5, human Delta1 TCR (Fc fusion protein, Delta1 clone and gamma chain not stated).
T5 construct: also called Human Delta1 Fc fusion protein; human delta-1 chain
Briefly: bead binding titration, flow cytometry (MFI against antibody concentration).

Assay [8] addresses T4, cynomolgus Gamma/Delta1A TCR-Fc fusion …. Nature of the assay: bead binding assay (TCR-Fc on streptavidin beads, IgG titrated, flow cytometry); apparent KD.
Assay [9] concerns the target T6, cynomolgus monkey Delta1 Fc fusion protein (Delta1 clone not stated).
T6 construct: also called monkey (cyno) delta-1 chain; monkey Delta1 receptors
Briefly: bead binding assay: Fc fusion proteins on streptavidin-coated beads, IgG titrated, flow cytometry.

The target of assay [10] is T5, human Delta1 TCR (Fc fusion protein, …). Described as above.
For assay [11], the target named is T2, Cyno D2. Briefly: bead binding assay: biotinylated TCR-Fc on streptavidin beads, IgG titrated, flow cytometry.
Assay [12] has as its target T2, Cyno D2. The description is as above.
Assay [13] has as its target T2, Cyno D2. The assay is described as above.
In assay [14] the target is T4, cynomolgus Gamma/Delta1A TCR-Fc fusion …. The description is as above. This is another data set of the same source.
The target of assay [15] is T2, Cyno D2. The assay is described as above.
Assay [16] has as its target T2, Cyno D2. The assay is described as above.
Assay [17] has as its target T4, cynomolgus Gamma/Delta1A TCR-Fc fusion …. Described as above. This is another data set of the same source.
Assay [18] shares this target. The assay is described as above. The source holds these as a separate data set.
Assay [19] deals with T2, Cyno D2. The assay is described as above.
In assay [20] the target is T2, Cyno D2. The assay is described as above.
Assay [21] deals with T4, cynomolgus Gamma/Delta1A TCR-Fc fusion …. The description is as above. This is another data set of the same source.
The target is the same in assay [22]. Described as above. This is another data set of the same source.
Assay [23] shares this target. Described as above. The source holds these as a separate data set.
Assay [24] has as its target T5, human Delta1 TCR (Fc fusion protein, …). Briefly: SPR: biotinylated TCR on a neutravidin-loaded Avicap chip, IgG flowed (OneStep, Pioneer instrument). (In general: Surface plasmon resonance follows binding to a sensor surface in real time, without labels.)
Assay [25] addresses T2, Cyno D2. Briefly: bead binding assay: biotinylated TCR-Fc on streptavidin beads, IgG titrated, flow cytometry.

T3 sequence (delta chain, as listed by the source, chain 1 of 2): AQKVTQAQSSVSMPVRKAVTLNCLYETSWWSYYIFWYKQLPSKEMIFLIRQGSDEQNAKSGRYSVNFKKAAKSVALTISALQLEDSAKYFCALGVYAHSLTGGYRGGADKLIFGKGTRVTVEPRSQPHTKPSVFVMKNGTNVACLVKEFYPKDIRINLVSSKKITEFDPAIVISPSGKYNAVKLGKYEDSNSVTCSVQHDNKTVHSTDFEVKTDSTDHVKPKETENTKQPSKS
T3 sequence (gamma chain, as listed by the source, chain 2 of 2): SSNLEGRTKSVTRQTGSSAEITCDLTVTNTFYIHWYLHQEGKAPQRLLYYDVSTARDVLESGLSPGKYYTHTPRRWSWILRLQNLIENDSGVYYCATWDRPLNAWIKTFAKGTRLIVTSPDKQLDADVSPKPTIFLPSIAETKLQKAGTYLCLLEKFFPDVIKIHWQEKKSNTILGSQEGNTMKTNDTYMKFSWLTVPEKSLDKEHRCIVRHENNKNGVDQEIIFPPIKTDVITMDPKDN
T1 sequence (delta chain, as listed by the source, chain 1 of 2): as the sequence (delta chain, as listed by the source, chain 1 of 2) above
T1 sequence (gamma chain, as listed by the source, chain 2 of 2): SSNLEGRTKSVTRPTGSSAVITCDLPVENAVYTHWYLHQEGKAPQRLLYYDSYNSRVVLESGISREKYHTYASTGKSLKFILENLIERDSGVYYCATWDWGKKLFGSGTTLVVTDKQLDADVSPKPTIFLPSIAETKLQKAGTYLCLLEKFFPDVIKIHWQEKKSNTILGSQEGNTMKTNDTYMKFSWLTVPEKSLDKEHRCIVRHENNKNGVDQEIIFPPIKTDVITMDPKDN

B1: Delta1-23 (antibody, V domains shown)
VH: EVQLVESGGGLVQPGGSLRLSCAASGFTVSSSSIHWVRQAPGKGLEWVASIYSSSGYTYYADSVKGRFTISADTSKNTAYLQMNSLRAEDTAVYYCARDPGSYYWYYSGSAYEGYGLDYWGQGTLVTVSS
VL: DIQMTQSPSSLSASVGDRVTITCRASQSVSSAVAWYQQKPGKAPKLLIYAASSLQSGVPSRFSGSRSGTDFTLTISSLQPEDFATYYCQQQSKYPFLITFGQGTKVEIKR
notes: Tested in the human IgG format; also called anti-Delta1-23
By EC50 (read off the curve) is commonly meant the concentration at which the effect is half-maximal. As for B1, the binding result is recorded as “binds” in [1], “no binding (tested: 100 nM)” in assay [2] and “binds” in assay [3]. The Kd in assay [4] turned out to be 1.3 nM. The 50% effective concentration (EC50 (read off the curve)) in assay [5] was approximately 5 nM.

B2: Delta1-30 (antibody, V domains shown)
VH: B1 VH
VL: DIQMTQSPSSLSASVGDRVTITCRASQSVSSAVAWYQQKPGKAPKLLIYSASSLYSGVPSRFSGSRSGTDFTLTISSLQPEDFATYYCQQSGDDLITFGQGTKVEIKR
As for B2, in assay [6], the binding result is given as “no binding (tested: 100 nM)”.

B3: Delta1-41 (antibody, V domains shown)
VH: B1 VH with V29F, S31A, S32N, S33D
VL: B1 VL
notes: Tested in the human IgG format; also called anti-Delta1-41
Regarding B3, the “EC50 (read off the curve)” value was approximately 1 nM in assay [7], approximately 2 nM in [9] and 2 to 3 nM in [10]. For the same molecule, in assay [8], the Kd came out at 2.7 nM.

B4: Delta1-29 (antibody, V domains shown)
VH: B1 VH
VL: B2 VL with S50A, Y55Q
notes: Tested in the human IgG format
Turning to B4, the binding result in assay [11] is on record as “no binding (tested: 100 nM)”. The Kd in assay [8] was found to be 30.4 nM.

B5: Delta1-20 (antibody, V domains shown)
VH: B1 VH
VL: B1 VL with Q91Y, S92C, K93R, Y94K, P95S, F96S, I98F
notes: as for B4
In the case of B5, in [12], the binding result was “no binding (tested: 100 nM)”. Besides, the Kd in assay [8] stood at 0.34 nM.

B6: Delta1-18 (antibody, V domains shown)
VH: B1 VH
VL: B1 VL with Q91R, K93R, Y94V, P95Y, F96S, I98V
notes: as for B4
As to B6, the binding result in assay [13] is “no binding (tested: 100 nM)”. For the same molecule, the Kd in assay [8] was 0.15 nM.

B7: Delta1-37 (antibody, V domains shown)
VH: B1 VH with V29F, S30T, S31G
VL: B1 VL
notes: also called anti-Delta1-37
Regarding B7, the “EC50 (read off the curve)” value in assay [14] was approximately 2 nM.

B8: Delta1-21 (antibody, V domains shown)
VH: B1 VH
VL: B1 VL with S92Q, K93R, Y94T, P95S, F96Y
notes: as for B4
As for B8, the binding result in assay [15] is listed as “no binding (tested: 100 nM)”. Moreover, the Kd in assay [4] was 1.74 nM.

B9: Delta1-27 (antibody, V domains shown)
VH: B1 VH
VL: B1 VL with Q91S, K93R, Y94N, P95S, F96K
notes: as for B4
In the case of B9, in assay [16], the binding result is on record as “no binding (tested: 100 nM)”. In addition, in assay [8], the Kd came to 0.78 nM.

B10: Delta1-40 (antibody, V domains shown)
VH: B1 VH with V29F, S30T
VL: B1 VL
notes: also called anti-Delta1-40
Take B10: in assay [17], the 50% effective concentration (EC50 (read off the curve)) was approximately 2 nM.

B11: Delta1-36 (antibody, V domains shown)
VH: B1 VH with V29F, S32N, S33D
VL: B1 VL
notes: also called anti-Delta1-36
For B11, the half-maximal effective concentration (EC50 (read off the curve)) in assay [18] is approximately 3 nM.

B12: Delta1-19 (antibody, V domains shown)
VH: B1 VH
VL: B1 VL with Q91M, S92D, K93R, Y94F, P95Y, F96S
notes: as for B4
As to B12, the binding result in assay [19] is listed as “binds”. For the same molecule, in assay [4], the Kd worked out at 0.25 nM.

B13: Delta1-28 (antibody, V domains shown)
VH: B1 VH
VL: B1 VL with Q91W, S92M, K93R, Y94S, P95S, F96S, I98F
notes: as for B4
Take B13: in assay [4], the Kd was 0.36 nM. In addition, the binding result in [20] is recorded as “no binding (tested: 100 nM)”.

B14: Delta1-33 (antibody, V domains shown)
VH: B1 VH with V29F
VL: B1 VL
notes: also called anti-Delta1-33
On to B14, for which, in [21], the “EC50 (read off the curve)” value is approximately 2 nM.

B15: Delta1-34 (antibody, V domains shown)
VH: B1 VH with V29F, S31G, S32T, S33D
VL: B1 VL
notes: also called anti-Delta1-34
As for B15, in assay [22], the “EC50 (read off the curve)” value is approximately 3 nM.

B16: Delta1-38 (antibody, V domains shown)
VH: B1 VH with V29F, S30T, S33D
VL: B1 VL
notes: also called anti-Delta1-38
In the case of B16, the concentration giving a half-maximal response (EC50 (read off the curve)) in [23] is approximately 3 nM.

B17: Delta1-17 (antibody, V domains shown)
VH: B1 VH with S102M
VL: B2 VL
notes: also called anti-Delta1-17; Delta-17
Regarding B17, the Kd was determined as 4.6 nM in assay [24] and 13.7 nM in assay [8]. In addition, the half-maximal effective concentration (EC50 (read off the curve)) in [7] is approximately 0.5 nM. Moreover, the binding result in [25] is recorded as “no binding (tested: 100 nM)”.
